These results are taken from the domain aggregation screens of Martell et al. (2025).

The series is described as follows: soluble fraction after stress (log2 fold change); higher = more stays soluble; pooled small domains, quantitative proteomics. The conditions noted are these: stress: pH 4. The method in brief: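 Aggregation propensity is read out as the fold change in how much of each domain remains soluble after acid stress. The custom small-domain libraries were pooled, held at pH 4 and analysed with high-throughput quantitative proteomics. On the log2 scale used, higher values mean more of the domain stayed soluble.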
Turning to “HMVDDNFGLGEVTDQNYLTVLGRALDLIGWTDEQADSYSLKTFGVPHWDELGRSQAEKLVAHLIGLLKEQM”, the “soluble fraction (log2)” value is -0.157.
For “HMVDIEQAEFLSRQFDLLLARLDDPTIEWQDIADIRSEYTGENEHRDTIRKGSKLFYEYLQAGWIKN”, the “soluble fraction (log2)” value was -0.809.
For “HMVDISLSDRELEVLRLLAMGLSNADISRRLYLSEGTIRNYMSGIFSKLNVSDRTQAVVIALREGLVNL”, the “soluble fraction (log2)” value is -0.976.
On to “HMVDPAEASKRAREYLDALPADDLKDVIRQFSATLAEGSVVLGYFQRSGLKSKVVKTALEQFVASTILSK”, for which the “soluble fraction (log2)” value is -0.268.
On to “HMVDPAFLAWQQKPENTWFGTDRRKTALAIAIAEEIRNDPANSNLVGAAFYARVAEETEETLN”, for which the “soluble fraction (log2)” value was -1.23.
Consider “HMVDPWLEQVHRASAAYATAHGSARIPTTHPDLGWKVVRVRQRHRKGLLSDEWVAKFEALPGWTWEPK”, for which the “soluble fraction (log2)” value was -0.471.
Take “HMVDQAFQTQLKNIQARTGKNLDELYAFIRASGLVKHGEIRDLAKRELSLGHGDANTLAKFYLESLAAAA”: the “soluble fraction (log2)” value was -0.103.
Regarding “HMVDQKLIQASAEHSGIRIDRFLSEQLPEHSRSYIQKLIKDGQVSIGGKAVKSNYKIAGTEEISLLIPDQ”, the “soluble fraction (log2)” value was -0.224.
For “HMVDTSDLPAIVEKVFADNPEQVNDILNGKDRVKGFLVGQIMKATRGQAPPDEVNKLIDATLEKMKAA”, the “soluble fraction (log2)” value is 0.188.
In the case of “HMVDYIGRRGVMLSTVSEEKMGNAEVVIDGNSYNIYVKSLDGSTIAYHQEILIINKSKDNNYFLVQIY”, the “soluble fraction (log2)” value was -0.548.
Next, “HMVEAIDQALIEKQIQAVLQENSAAVKKYQAGKTEVLAFLIGQSMRKIAKKVDANLVKNILLEQLKNK”: 0.077; “HMVEDFSEVLLQYIREQGGAIALNDKTDAGVIYDTFGVSKKTFKKAVGDLYKKRLIVLGDEGIRLA”: -0.939.
For the sequence “HMVEIGENIKKLRKAKRMTQKEVANQLNVTPQTISKWERNISYPDLDMLVKLSQLFHISTDALL”, the “soluble fraction (log2)” value was at least 0.43.
As to “HMVELNDNEKIVYDILKETEKIHIDELTAKVQLTQSILSGALVQMEMKGMIVSLPGKMYKLL”, the “soluble fraction (log2)” value was -1.53.
As for “HMVELRDGSLPLARGSVGDLVAEVQRKLGVAADGIFGPQTERAVRAFQARAGLASDGIVGPLTWSALFGA”, the “soluble fraction (log2)” value amounted to 0.117.
For “HMVELVKVPALQGETVDEAIADIKDAGLEPGQVRYVESDLPKDTVTYQSVDAGEQVKAGTVINLQASKGP” the value was 0.137; for “HMVEMSNMELVREQYFQNLIYNVGDWVKDSKTEITGEVVKRGTNYLTIVQEDFTLHKVWLEDAESME”, -1.46; for “HMVEPDELTEREREVLQFVARGLSNKEIGAALALSPHTIKAHLRSILDKLHLRSRAEAAAWAVRSGLS”, -0.162.
Regarding “HMVEPLIVRNFSINYADIDKLETKIKDYISNSDKSGVNRGRVTSDTRTNMLIVTETASKLAQVEQLLKALD”, the “soluble fraction (log2)” value was -0.591.
Next, “HMVEPTDFTYLKAEVETAKALKQADYTVATWKSFAGELAEAEEVIAKTDASQAEVNEALSHLQAAEKELV”: 0.215.
Turning to “HMVETDQESSLIQAIYKYFEITGDNTFFDEKVGEKTVADRMEWAMDYLIQNRFSEEYGLIWGA”, the “soluble fraction (log2)” value is -0.517.
Turning to “HMVFADRLRALRKKSGLTQDEFSKQTGIGRSAVGMYESGKREPNYTTLSKVARFYHVSTDYLLGRTDTP”, the “soluble fraction (log2)” value was -0.13.
For “HMVFQTAAEKAYEIISKKIMKGEYEPGMRLVRRQLAQELGVSPIPILEAMKRLEQDGLIEYKAHWGSIVTI”, the “soluble fraction (log2)” value is -0.56.
As for “HMVFRFELQPSSATPLYRQIVEQVTRAVAAGVLRDGEELPSVRAVAQEYVINPMTVSKAYSLLEAQSI”, the “soluble fraction (log2)” value was -0.34.
As to “HMVFSNLGSRGEEVRQIQTKLKELGYLQGNVDGIYGNQTKQAVTAFQRDHGLSADGIAGEKTLAALGIG”, the “soluble fraction (log2)” value was found to be 0.105.
In the case of “HMVGAEDISKPMNLGALMRTAHAFGASFFFTINAHPKVRHAYNSDTSRSFDHMPYYPWDTMEE”, the “soluble fraction (log2)” value was -0.287.
For the sequence “HMVGDLPPQELRVFELIGDGLSNREIADEMILAEKTIKNYVTSLLQKLGMQRRTEAAAFAARLDER”, the “soluble fraction (log2)” value is -0.607.
On to “HMVGDMLTQKDSEGLTAYLYQQGIISQREMLLLNGILKDRVLTGMEKGQRDSVRASMVQHLLAMLNMM”, for which the “soluble fraction (log2)” value was -1.55.
Regarding “HMVGEQISYIPLKFATASEVVKSLTSMFQQQKGIAPIRIVAEERTNAILLLASEADTARVKNLIAMMDKGV”, the “soluble fraction (log2)” value is -0.0978.
Regarding “HMVGGIAIGQFNVPRGSVKVTAGGRLLQEGLDYTVNYQAGRVQILDESLKNSNVPIEISTESNS”, the “soluble fraction (log2)” value was -0.111.
Consider “HMVGMDRYFKIKNIKDSSAAFERDYILHFLKENDWMVSKTAQMIGLERTTLYKKIKQLGLASMLEN”, for which the “soluble fraction (log2)” value was -0.386.
For “HMVGQIISNARKQEKMTQSELAEKVGTNKTYISRIEKGVIEPGVGLFFRIIDALGLKIEIVKP”, the “soluble fraction (log2)” value is -0.362.
For “HMVHSEDLQDHKYVSQLGEVFLKENPNYENIKKSWGDHMVVIKKFGRYPHRNKILNRKSTPEELEFLKG” the value was -0.115; for “HMVILPGEKMVVKIVQPGKEKGQGVGYLADGTMIVVDSGDKMIGQDVPTEITRVFQTVAGKMLFAVPVD”, -0.255; for “HMVIMDLIVNGEPKYVVGEQLHLILDELGYSGKHFVVELNGEILSKEAYTTTKLTAADRLEIVSFVGG”, -1.72.
Turning to “HMVITATYTDFMDALEADEVKQVQFSSTEINYTIEKGGHVQYFKTGVVDNPQLPQILREKGVTYAAEIP”, the “soluble fraction (log2)” value is -0.023.
With “HMVITDPFFLEPENLVKDAVALMEKYRISGVPITKKGKLVGILTNRDLRFESNYEQPIANVMS”, the “soluble fraction (log2)” value is -0.363.
For “HMVITISEADVSGTYTKSITQGDWKYIRTWTPFEDERLYDLAKDPMELRDLAPAAPSKLAELRELLSALVS” the value was -1.56; for “HMVIVMRKDADAASIEKVVSEVKSRGFMPHVSEGESRTLIGAIGPAPTEELREHFAGLAGVETVVRITK”, -0.0319.
Regarding “HMVKDIEFSLPLEQDYYKVLISVKDSQGKRQVYEELHRAGDTVYAAVRYYGSGELEIHLNGKFYKTIK”, the “soluble fraction (log2)” value was -1.6.
In the case of “HMVKDLEIETIRLNNLLASDAEEVLKSLGGAKPTYKAVAVPGSNSLVIEGTKADLIKLKSIINALEDGS”, the “soluble fraction (log2)” value was -0.316.
In the case of “HMVKETNYSFFLKQIDAGTVEQVQIEDTEIKFKVSTADGKEQVYSTVRVEDPDLVDRLYSKGNIDFTGN”, the “soluble fraction (log2)” value was -1.3.
On to “HMVKIIHYEVYANRGDGWKLVDQFSADQRQEAVNLAKEIETEDQVAVKIIREIFDVQDNTYQESVEYIG”, for which the “soluble fraction (log2)” value is -0.804.
On to “HMVKLDDLTGQDKATAEATITNSGLKYSEQQEFSDEVEAGKVIRTDPGAGTSSLKAGDTVTVYVSRGPEN”, for which the “soluble fraction (log2)” value was -0.0896.
On to “HMVKNYYEILEVDKKASPEVIEKAYKTLAKKYHPDLQEAENNGQYEEKMKEINEAYSVLSDEFKRRTYDEQ”, for which the “soluble fraction (log2)” value is 0.103.
As to “HMVKSYEVPDVSNLTVLEAEAKLQEMGFEIDEEQKEISSSDIESGRVVKTSPQAGSKRKEGAIITLYVSSG”, the “soluble fraction (log2)” value is -0.433.
As for “HMVKTANVAYSEFLKLVESDNISDVSIVGRTITGHLDDGTKFSTYTPPNDPSLIDKLTRKNVIIKSAPE”, the “soluble fraction (log2)” value is 0.181.
For the sequence “HMVKVEVKPNVLQWVIKRMDNFDRLKDQFPNIDKWINQESQPTLKQLEKLAKMTAVPLGYFFLPNPPEEK”, the “soluble fraction (log2)” value is -0.507.
Regarding “HMVLELRIGQIVRGVLLQLVGEREGIVSVGGVPVRARLEAEIPLGRGVMLQVQPGSDANNILLKPV”, the “soluble fraction (log2)” value was -0.139.
Take “HMVLENLKKFIDSKGISVSAFEKSIGMSNNSFRKSLNSGGHIGSDKLENILKIYPELNPVWLLQGEGEML”: the “soluble fraction (log2)” value is -0.0839.
As to “HMVLGSSVAMGQKIGDSDLTWVEVPLSSAFDRFLSEPEWRGSSDLVAARLLEAGVFLTEDDVVE”, the “soluble fraction (log2)” value came out at 0.136.
Next, “HMVLLGAAIRELRIQKGITIEELAEMSGLSTGLISKIERDLGNPSISSLRKISRALGVPTAFFFA”: -0.744.
“HMVLSKGAKELLDFIMREGEVTTSKVVQKFGGSAQNASAKLKKLYATGLILGSKAVAESGGLEFVYKA”: the “soluble fraction (log2)” value is 0.1.
For “HMVLSVRERMGIVLEKVNTETFTDFKELFTVEEGRAGAIVSLLAILQLMKDSLIQLVQNEPNGPIYVKAA” the value was 0.22.
As for “HMVLTSFHDNFPKTGTTYTVRSGDTISGIATKFGSTRDWIQNANEISHPKYLQVGRTLFIPH”, the “soluble fraction (log2)” value was 0.22.
For “HMVMATPHNTAKAGDIAKTVIMPGDPLRAKYIADNYLDNAVQFNVVRNIYGYTGVYRGTDISVMASGM”, the “soluble fraction (log2)” value was determined as 0.0409.
Turning to “HMVMETLAERINTALQTKGLSVNALARRVGVSYPAMRKITKGETLNPKFLFEIAEALGVSVEWLKTGEGSP”, the “soluble fraction (log2)” value came out at 0.0978.
On to “HMVMNKQEFLKILRDTLQSQLSSRETENHVEYYRTYIEEQMREGKTEIEILDVLGDPRLIARTILET”, for which the “soluble fraction (log2)” value was -0.253.
Next, “HMVMSTDAELILEYLAKHQGEMEITDKSSPELIMDTFNMSKGAFKRALGSLYKSKTVVIESTKVLLNT”: -0.0971; “HMVNDQSIYASEGYVHIRSGKPVSLRIYTILGALYRHEERLVGDHVIALPRGLYIVVLNHTAKKIMV”: 0.021; “HMVNEALDEFFVGLKNLYESATGKPAIAGAHFDGEPKTDFEKLMYLGYQIIRPAQAYPSALKAYERAIARS”: -1.15.
“HMVNHEERKRLIAEATWRTISHVGIEQASVRTIAKEAGLSLGALRYYFTTQEELLRFSMQLVQERV”: the “soluble fraction (log2)” value turned out to be 0.0598.
For “HMVNIEAEVGRRLRQLRARRGLSLRALADLSGLNVNTLSLIENSKTSPSVSTLQQLARSLQVPITTFFESD”, the “soluble fraction (log2)” value turned out to be 0.142.
Next, “HMVNKQERTYTILRDRIHSGSFAPLERLNIDALARELGVSPIPVREALRRLEAEGWVRFTPNVGAVVSP”: 0.308; “HMVNLLVTPLEELEINFRTLRALRKYNIYQLEDLLRFIKYNGFDALRIVPGMGIKSTEQLYEKLKDKNI”: -1.06.
Next, “HMVNTVEVQGNTIYSAEEIRSASGIQKGDNLFTLNKEAAAGSIKASLPYVETVSIIRFLPDKIVIEVKE”: -0.977; “HMVNVLKNSTVIDLVKNNLSDALIISLIRRAKVDFSLMTDDVIELSGKGVSPAVIMEMRQAMIRQASEIQN”: -0.183.
For the sequence “HMVNVTEAIDLENGTGKLSGTFNHEPKSAEEIIFLLKIDTNKWKLSQYWNKQMGDHWRVSALISQI”, the “soluble fraction (log2)” value was -1.54.
